T1: recombinant monomeric mouse TIGIT-His (SEQ ID NO: 3) (mouse, UniProt P86176 29-148)
T1 construct: also called mTIGIT; not shown: His tag
T1 sequence: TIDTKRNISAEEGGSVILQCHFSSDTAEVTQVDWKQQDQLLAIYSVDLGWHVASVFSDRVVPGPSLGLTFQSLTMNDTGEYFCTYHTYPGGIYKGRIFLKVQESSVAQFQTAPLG

T2: recombinant monomeric human TIGIT-His (human, UniProt Q495A1 22-141)
T2 construct: also called hTIGIT; not shown: His tag
T2 sequence: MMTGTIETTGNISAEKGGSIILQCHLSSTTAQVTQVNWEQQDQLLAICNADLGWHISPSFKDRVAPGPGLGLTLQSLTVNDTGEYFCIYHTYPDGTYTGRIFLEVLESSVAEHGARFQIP

T3: mouse TIGIT on primary murine Tregs (mouse, UniProt P86176 29-249)
T3 construct: whole, on cells; also called Mouse Tregs
T3 sequence (looked up): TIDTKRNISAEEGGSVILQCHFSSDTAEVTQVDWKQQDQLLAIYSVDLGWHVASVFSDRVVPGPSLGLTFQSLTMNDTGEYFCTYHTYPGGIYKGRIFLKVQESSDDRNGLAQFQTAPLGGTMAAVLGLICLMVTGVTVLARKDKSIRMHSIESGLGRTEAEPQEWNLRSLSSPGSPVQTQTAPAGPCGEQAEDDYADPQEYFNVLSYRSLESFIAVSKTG

T4: human TIGIT on the cell surface (human, UniProt Q495A1 22-244)
T4 construct: Expressed on engineered Jurkat cells or naturally on human primary CD8+ T cells (the cells are named under assay); also called Human TIGIT Jurkat; human TIGIT expressing Jurkat cells
T4 sequence: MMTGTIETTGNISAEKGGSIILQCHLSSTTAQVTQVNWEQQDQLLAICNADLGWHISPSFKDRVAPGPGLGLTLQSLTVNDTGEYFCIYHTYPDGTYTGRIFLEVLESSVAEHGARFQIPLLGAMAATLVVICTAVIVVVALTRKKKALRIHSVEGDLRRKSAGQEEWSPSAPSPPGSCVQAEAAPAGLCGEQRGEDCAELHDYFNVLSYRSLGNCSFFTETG

B1: SEC1 mouse IgG2a N297A (antibody)
heavy: EVQLVESGGGLTQPGKSLKLSCEASGFTFSSFTMHWVRQSPGKGLEWVAFIRSGSGIVFYADAVRGRFTISRDNAKNLLFLQMNDLKSEDTAMYYCARRPLGHNTFDSWGQGTLVTVSSAKTTAPSVYPLAPVCGDTTGSSVTLGCLVKGYFPEPVTLTWNSGSLSSGVHTFPAVLQSDLYTLSSSVTVTSSTWPSQSITCNVAHPASSTKVDKKIEPRGPTIKPCPPCKCPAPNLLGGPSVFIFPPKIKDVLMISLSPIVTCVVVDVSEDDPDVQISWFVNNVEVHTAQTQTHREDYASTLRVVSALPIQHQDWMSGKEFKCKVNNKDLPAPIERTISKPKGSVRAPQVYVLPPPEEEMTKKQVTLTCMVTDFMPEDIYVEWTNNGKTELNYKNTEPVLDSDGSYFMYSKLRVEKKNWVERNSYSCSVVHEGLHNHHTTKSFSRTPGK
light: DIVMTQSPSSLAVSPGEKVTMTCKSSQSLYYSGVKENLLAWYQQKPGQSPKLLIYYASIRFTGVPDRFTGSGSGTDYTLTITSVQAEDMGQYFCQQGINNPLTFGDGTKLEIKRADAAPTVSIFPPSSEQLTSGGASVVCFLNNFYPKDINVKWKIDGSERQNGVLNSWTDQDSKDSTYSMSSTLTLTKDEYERHNSYTCEATHKTSTSPIVKSFNRNEC
notes: also called SEC1 IgG2a N297A
B2: SEC1 human IgG4 S228P (antibody)
heavy: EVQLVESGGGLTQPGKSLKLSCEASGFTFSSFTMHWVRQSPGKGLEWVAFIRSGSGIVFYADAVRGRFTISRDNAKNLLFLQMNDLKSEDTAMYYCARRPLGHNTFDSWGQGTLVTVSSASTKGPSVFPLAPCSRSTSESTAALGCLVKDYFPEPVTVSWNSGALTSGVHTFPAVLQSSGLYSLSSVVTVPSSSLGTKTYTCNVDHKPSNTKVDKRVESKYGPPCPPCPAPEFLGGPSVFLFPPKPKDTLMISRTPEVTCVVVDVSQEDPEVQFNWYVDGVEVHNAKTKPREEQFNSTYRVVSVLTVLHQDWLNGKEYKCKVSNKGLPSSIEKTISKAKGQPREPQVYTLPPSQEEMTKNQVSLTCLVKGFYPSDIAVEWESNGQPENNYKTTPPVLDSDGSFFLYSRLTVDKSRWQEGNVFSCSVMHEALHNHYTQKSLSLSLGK
light: DIVMTQSPSSLAVSPGEKVTMTCKSSQSLYYSGVKENLLAWYQQKPGQSPKLLIYYASIRFTGVPDRFTGSGSGTDYTLTITSVQAEDMGQYFCQQGINNPLTFGDGTKLEIKRTVAAPSVFIFPPSDEQLKSGTASVVCLLNNFYPREAKVQWKVDNALQSGNSQESVTEQDSKDSTYSLSSTLTLSKADYEKHKVYACEVTHQGLSSPVTKSFNRGEC
notes: Chimeric: hamster variable regions, human IgG4 S228P and human kappa constant regions; also called SEC1 (IgG4 S228P)

What was measured:
[1] = target: T1, recombinant monomeric mouse TIGIT-His …; experiment: BLI (Octet QKe), SEC1 on AMC sensor, mouse TIGIT-His 33 to 1.22 nM, 1:1 global fit
[2] = target: T5, recombinant monomeric cynomolgus monkey TIGIT-His (cynomolgus monkey); experiment: BLI (Octet QKe), SEC1 on AMC sensor, cynomolgus monkey TIGIT-His in solution
T5 construct: also called Cyno TIGIT His; cTIGIT; not shown: His tag

[3] = target: T2, recombinant monomeric human TIGIT-His; experiment: BLI (Octet QKe), SEC1 on AMC sensor, human TIGIT-His 33.8 to 1.25 nM, 1:1 global fit
[4] = target: T3, mouse TIGIT on primary murine Tregs; experiment: flow cytometry on primary murine Tregs, average
[5] = target: T4, human TIGIT on the cell surface; experiment: flow cytometry on human primary CD8+ T cells
[6] = target: T6, cynomolgus monkey TIGIT on the cell surface (cynomolgus monkey); experiment: flow cytometry on cynomolgus monkey primary CD8+ T cells
T6 construct: Expressed on engineered Jurkat cells or naturally on cynomolgus monkey primary CD8+ T cells (the cells are named under assay); also called Cynomolgus Monkey TIGIT Jurkat; Cynomolgus Monkey CD8
T6 sequence (chain, as listed by the source limits assumed): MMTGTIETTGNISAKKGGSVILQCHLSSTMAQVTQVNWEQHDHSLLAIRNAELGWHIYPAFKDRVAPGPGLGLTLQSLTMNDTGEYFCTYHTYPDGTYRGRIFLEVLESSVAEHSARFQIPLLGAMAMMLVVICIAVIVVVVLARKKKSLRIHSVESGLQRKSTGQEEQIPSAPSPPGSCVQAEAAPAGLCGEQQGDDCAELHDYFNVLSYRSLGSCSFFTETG

T5 sequence (chain, as listed by the source limits assumed): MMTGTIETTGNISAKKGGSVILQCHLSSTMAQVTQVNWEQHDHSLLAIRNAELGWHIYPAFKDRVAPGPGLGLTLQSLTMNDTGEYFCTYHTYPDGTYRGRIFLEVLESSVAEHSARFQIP

Binder	Kd [1] [nM]	koff [1] [s⁻¹]	kon [1] [M⁻¹ s⁻¹]	binding result [2]	Kd [3] [nM]	koff [3] [s⁻¹]	kon [3] [M⁻¹ s⁻¹]	Kd [4] [nM]	Kd [5] [nM]	binding result [6]
B1	0.32	0.0006	1.9e+06	no binding (tested: 302.8 to 0.42 nM)	4.7	0.0079	1.7e+06	–	–	–
B2	–	–	–	–	–	–	–	0.41	3.6	no binding
